Source: patent publication US9013690

Target: Beta Amyloid 1-40 (human) (UniProt P05067)
Test: fluorescence sandwich immunoassay on D2PA plate, 6E10 capture and anti-Aβ42 detection, Aβ40 as analyte

Cross-Reactivity: 0.06%
Substance: anti-Aβ42 (biotinylated detection antibody of the Covance Aβ-42 ELISA kit)
